Ends that are not written are not given here.
What was measured:
Settings in all cases: both partners purified
[1] = target: T1, BCL6 BTB domain (BCL6 5-129, tag removed by HRV-3C protease) (human, UniProt P41182 5-129); assay: fluorescence polarisation; direct binding of the BCOR-AF633 probe to BCL6 BTB, FP KD (Figure S1A)
[2] = target: Trx-6His-HRV3C-BCL6 (Thioredoxin-6His-tagged BCL6 BTB, uncleaved) (human, UniProt P41182 5-129); assay: as above
[3] = target: T2, BCL6 BTB domain (BCL6 5-129, tag removed by HRV-3C protease) (human, UniProt P41182 5-129); assay: thermal shift assay; 10 µM BCL6 BTB, Sypro Orange, sodium acetate pH 6, 100 mM NaCl, 0.5 mM TCEP; 200 µM BCOR control peptide
[4] = target: T2, BCL6 BTB domain (BCL6 5-129, tag …); assay: fluorescence polarisation; competition: 10 nM BCOR-AF633, 3 µM BCL6 BTB, unlabelled peptide varied; 20 mM Hepes/NaOH pH 8.0, 150 mM NaCl, 0.5 mM TCEP, 0.05% Tween 20, 1-2% DMSO; 2 h at room temperature
[5] = target: T1, BCL6 BTB domain (BCL6 5-129, tag …); assay: as above; remark: listed apart in the source

B1: Alexa Fluor 633-conjugated BCOR peptide (RSEIISTAPSSWVVPGP-Cys(AF633)-amide) (peptide)
peptide: RSEIISTAPSSWVVPGPC(Alexa Fluor 633 C5 maleimide)-NH2
notes: added C-terminal cysteine that carries the dye; also called BCOR-AF633; BCOR-A633; source: synthetic peptide, bought: Cambridge Research Biochemicals
Kd [1]: 1.7 ± 0.3 µM | Kd [2]: 1.74 µM

B2: unlabelled BCOR peptide (17 residue BCOR peptide) (peptide)
chain: RSEIISTAPSSWVVPGP
modifications: Terminal capping of the unlabelled peptide is not printed. Limits come from the UniProt BCL6-interaction region 498-514, which is 17 residues and matches the printed probe RSEIISTAPSSWVVPGP without …
ΔTm with 200 µM peptide [3]: 6.5 °C | IC50 [4]: 13 ± 1 µM

B3: SMRT peptide (EGLVATVKEAGRSIHEIPR) (peptide)
peptide: EGLVATVKEAGRSIHEIPR
notes: also called SMRT control peptide; unlabelled SMRT peptide; source: synthetic peptide, bought: Pepceuticals Ltd
IC50 [5]: 16 ± 6 µM
